Usually Kd stands for the constant that tells how readily two partners part at equilibrium.

The source of these data is paper PMC546141.

Residue numbers refer to the chain shown, from its start. In names and notes the source's numbering stands.

This data set addresses T1, mPrrp-2xRBD (mouse, UniProt Q9JII5 1-201).
T1 sequence: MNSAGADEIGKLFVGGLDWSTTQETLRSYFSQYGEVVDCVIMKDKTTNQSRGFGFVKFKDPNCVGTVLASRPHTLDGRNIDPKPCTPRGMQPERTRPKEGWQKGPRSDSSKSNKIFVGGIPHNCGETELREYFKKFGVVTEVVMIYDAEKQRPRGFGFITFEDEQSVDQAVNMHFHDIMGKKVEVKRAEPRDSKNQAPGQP
In words: EMSA. For orientation: A gel shift assay detects complexes by their altered migration in electrophoresis.

B1: S-13 26-73 U52C (structured_RNA)
RNA: GGCAUAGCCAAAUAGUUUGUGGCCUUAGCUUAGUAUAGCUGCGGGCUAUGGGAUC
Turning to B1, the Kd was approximately 55 nM.

B2: S-13 26-73 U53C (structured_RNA)
RNA: B1 RNA with C29U, U30C
B2 gave a Kd of approximately 75 nM.
